Where two headings read alike, the source gives them in different places.

The target of test [1] is T1, His-MT-SP1 protease domain (Homo sapiens, UniProt Q9Y5Y6).
T1 construct: made in house; host or cells: E. coli X-90 (pQE30 vector)
The test can be described thus: Substrate kinetics of purified His-MT-SP1 protease domain. Type of test: biochemical. As to the method:
The purified serine protease domain was titrated with 4-methylumbelliferyl p-guanidinobenzoate (MUGB) to obtain an accurate concentration of enzyme active sites^(iii). Enzyme activity was monitored at 25° C. in assay buffer containing 50 mM Tris pH 8.8, 50 mM NaCl, and 0.01% Tween 20. The final concentration of substrate Spectrozyme tPA ranged from 1 μM–400 μM. Enzyme concentrations ranged from 40 pM–800 pM. Active site titrations were performed on a Fluoromax-2 spectrofluorimeter. Measurements were plotted using the KaleidaGraph program (Synergy, Reading, Pa.), and the Km, kcat, and kcat/Km for Spectrozyme tPA was determined using the Michaelis-Menten equation.

The next test deals with PC-3 primary tumor. In words: PC-3 implanted nude mice, inhibitor treatment. Type of test: in vivo. The following applies: treated seven weeks, compared to PBS-treated mice after four weeks. The source says: Another well characterized model that is derived from human prostate cancer epithelial cells is the PC-3 cell line (Kaighn et al. (1979) Invest. Urology 17: 16–23). The PC-3 cell line expresses uPA as assayed by enzyme-linked immunosorbent assay (ELISA) and by Northern blotting of PC-3 mRNA (Yoshida et al. (1994) Cancer Res. 54: 3300–3304). […] Metastasis from the primary tumors similarly were similarly lower in the inhibitor-treated mice compared to PBS treated mice. Inhibition was not unexpected with ecotin M84R/M85R treatment, since uPA has been implicated in metastasis. […] Thus identification of the serine proteases expressed by PC-3 prostate cells may provide insight into the role of these proteases in cancer and prostate growth and development. In this example we have extended the strategy of using the polymerase chain reaction (PCR) with degenerate oligonucleotide primers that were designed using conserved sequence homology (Sakanari et al. (1989) Proc. Natl. Acad. Sci. USA 86: 4863–4867; Wiegand et al. (1993) Gene 136: 167–175, Kang et al. (1992) Gene 110: 181–187) to identify additional serine proteases made by cancer cells. […]

The subject of a further test is tumor. In words: Ecotin injected intraperitoneally, tumor growth. Type of test: in vivo.
Test [2] deals with T2, uPA (Homo sapiens, UniProt P00749). The settings on record: cited from earlier work.
Test [3] has as its target T3, His-tagged MT-SP1 serine protease domain (Homo sapiens, UniProt Q9Y5Y6).
T3 construct: made in house; host or cells: E. coli X-90 (pQE30 vector)
In words: Inhibition of MT-SP1 protease domain with ecotin and ecotin M84R/M85R. In kind it is biochemical. As to the method: Ecotin and ecotin M84R/M85R were purified from E. coli as described in copending application Ser. Nos. 09/290,513 and 09/289,830, both filed on Apr. 12, 1999. Various concentrations of ecotin or ecotin M84R/M85R were incubated with the His-tagged serine protease domain in a total volume of 990 μL of buffer containing 50 mM NaCl, 50 mM Tris-HCl (pH 8.8), 0.01% Tween 20. 10 μL of Spectrozyme tPA was added, yielding a solution containing 100 μM substrate. The final enzyme concentration was 63 pM, and the ecotin and ecotin M84R/M85R concentration ranged from 0.1 nM to 50 nM. The data were fit to the equation derived for kinetics of reversible tight-binding inhibitors (Morrison (1969) Biochim. Biophys. Acta 185: 269–286, Williams and Morrison (1979) Methods. Enzymol. 63: 437–467), and the values for apparent Ki were determined.

The subject of a further test is explanted rat VP. In words: Rodent ventral prostate (VP) explant culture. Type of test: cell-based. The settings on record: for ductal branching morphogenesis and differentiation of rat ventral prostate: explant culture, testosterone-induced. The source says:
One useful model system for studying many issues that are pertinent to prostate cancer is the development of the rodent ventral prostate (VP) in explant cultures. Macromolecular inhibitors of serine proteases of the chymotrypsin fold, ecotin and ecotin M84R/M85R (see copending application Ser. Nos. 09/290,513 and 09/289,830, both filed on Apr. 12, 1999), inhibit ductal branching morphogenesis and differentiation of the explanted rat VP. […] Thus unidentified serine proteases may play a role in growth and prevention of apoptosis in prostate epithelial cells in this system.

A further test concerns PC-3 cells. In words: Subcutaneous coinjection of PC-3 cells with inhibitor. In kind it is in vivo. The following applies: subcutaneous coinjection with PC-3 cells, compared to PC-3 cells and saline.
Test [4] addresses T2, uPA. The test can be described thus: Inhibition of uPA. Type of test: biochemical.

T1 sequence (Q9Y5Y6 615-855 limits assumed, other chains not shown): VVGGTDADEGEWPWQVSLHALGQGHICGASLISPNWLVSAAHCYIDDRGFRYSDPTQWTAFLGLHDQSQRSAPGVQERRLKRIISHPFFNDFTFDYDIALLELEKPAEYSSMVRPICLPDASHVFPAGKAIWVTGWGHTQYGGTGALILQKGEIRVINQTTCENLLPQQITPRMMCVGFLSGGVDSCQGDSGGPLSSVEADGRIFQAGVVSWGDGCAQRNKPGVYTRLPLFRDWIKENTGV
T3 sequence (Q9Y5Y6 615-855 limits assumed, other chains not shown): as above

For `NC(N)=NCCC[C@H](N)C(=O)Nc1ccc([N+](=O)[O-])cc1` [H-Arg-pNA, arginyl-pNA], in test [1], the “hydrolysis of pNA substrate by the MT-SP1 protease domain” value is recorded as “does not cleave”.

For “ecotin: Macromolecular inhibitor of serine proteases of the chymotrypsin fold, purified from E. coli”, the primary tumor size entry in the test with PC-3 primary tumor was “significantly smaller”. Besides, in the test on tumor, the tumor growth result was “inhibited”. Moreover, in the test with uPA [2], the “inhibition of uPA, in words” value is “poor, micromolar inhibitor” and the “inhibitor potency against uPA” value is 2.8 µM. Further, in test [3], the “inhibition of MT-SP1, in words” value was “potent, subnanomolar inhibitors”. In the test with explanted rat VP, the “apoptosis in rat ventral prostate model” value was “enhances”; the “ductal branching morphogenesis and differentiation of rat ventral prostate” value was “inhibits”. The primary tumor size result with PC-3 cells was “decrease”.

Consider “hexahydrotyrosyl-Gly-Arg-pNA [Spectrozyme tPA]”, for which the kcat was 260 s⁻¹ in test [1] and 2.6×10^2±6.5 s^−1 in test [1] (25° C., pH 8.8). For the same molecule, the Michaelis-Menten constant (Km) in test [1] (25° C., 50 mM Tris pH 8.8, 50 mM NaCl, 0.01% Tween 20) amounted to 31.4 ± 4.2 µM.

B1: ecotin M84R/M85R: Engineered version of ecotin, macromolecular inhibitor of chymotrypsin-fold serine proteases (protein)
chain: AESVQPLEKIAPYPQAEKGMKRQVIQLTPQEDESTLKVELLIGQTLEVDCNLHRLGGKLENKTLEGWGYDYYVFDKVSSPVSTRRACPDGKKEKKFVTAYLGDAGMLRYNSKLPIVVYTPDNVDVKYRVWKAEEKIDNAVVR
For B1, the primary tumor size result in the test on PC-3 primary tumor is on record as “significantly smaller”; with PC-3 cells it was “decrease”. For the same molecule, in the test with uPA [2], the “inhibitor potency against uPA” value is 0.001 µM. Moreover, the “inhibition of MT-SP1, in words” value in test [3] was “potent, subnanomolar inhibitors”. Besides, the “fold more potent inhibitor of uPA compared to ecotin” value in the test with uPA [4] was determined as 2800 fold. Also, the “apoptosis in rat ventral prostate model” value with explanted rat VP is given as “enhances”. Besides, in the test on explanted rat VP, the “ductal branching morphogenesis and differentiation of rat ventral prostate” value was “inhibits”.

In general, kcat refers to the number of substrate molecules converted per active site and unit of time at saturation. Usually Km stands for the concentration of substrate that gives half-maximal velocity.

(Values after patent US7227009B2, “MT-SP1 polynucleotides and polypeptides” (Catalyst Biosciences, Inc., priority 1999, dated 2007).)
